Data: paper PMC6266874

Key:
Experiment in all cases: GST-WRKY pull-down of BIK1-HA from leaf extract
Settings in all cases: reference: wild type BIK1; sites S89,T90
WRKY33 = WRKY33 (UniProt Q8S8P5)
WRKY57 = WRKY57 (UniProt Q9C983)
WRKY50 = WRKY50 (UniProt Q8VWQ5)

Measured: binding against the reference

BIK1 (Botrytis-induced kinase 1) (from UniProt O48814) S89A/T90A
stronger: all assays above
